US7514408B1, “β-secretase enzyme compositions and methods” (Elan Pharmaceuticals, Inc., priority 1999, dated 2009)
Numbered stars: 1 amine (or outer) side, 2 acyl side, 3 side chain; on linkers, the order of the positions; unused ones are H or OH. Square brackets hold non-standard residues; d marks the D form. Peptide text beside a SMILES is read from it. Sta = CC(C)C[C@H](N)[C@@H](O)CC(=O)O; X1 = CC(C)CC(N[*:1])C(O)C(=O)[*:2]

Target: β-secretase (Homo sapiens, UniProt P56817)
Test: MBP C125 assay of peptide inhibitors
Format: biochemical
Procedure: The substrates for these studies were synthesized using solid support sequential synthesis as described in Example 7. Assays of the inhibitory activity were performed in the MBP C125 assays described in Example 4 and IC50 values were generated for the heptameric inhibitors are reported in Table 9. Preferred inhibitors of the invention are those compounds in Group III, particularly preferred inhibitors are in Group II and the most preferred are the inhibitors of Group I.
MBP-C125 Assay: Two recombinantly-expressed proteins (FIG. 19 and FIG. 20) were used as substrates for β-secretase. The preferred substrate (FIG. 19) was expressed in E. coli as a fusion protein of the last 125 amino acids of APP fused to the carboxy-terminal end of maltose-binding protein (MBP), using commercially available vectors from New England Biolabs. […]
Recombinant proteins were generated with both the wild-type APP sequence (MBP-C125 WT) at the cleavage site ( . . . Val-Lys-Met-Asp-Ala . . . ). […] This amino-terminal fragment can be recognized on Western blots with the same Ab, or, quantitatively, using an anti-MBP capture-biotinylated SW-192 reporter sandwich format, as shown in FIG. 19. […]
Microtiter 96-well plates were coated with purified anti-MBP antibody (@ 5-μg/ml), followed by blocking with human serum albumin. […] Plates were read in a Cytofluor 2350 Fluorescent Measurement System. […]

Chain of β-secretase (P56817 46-501): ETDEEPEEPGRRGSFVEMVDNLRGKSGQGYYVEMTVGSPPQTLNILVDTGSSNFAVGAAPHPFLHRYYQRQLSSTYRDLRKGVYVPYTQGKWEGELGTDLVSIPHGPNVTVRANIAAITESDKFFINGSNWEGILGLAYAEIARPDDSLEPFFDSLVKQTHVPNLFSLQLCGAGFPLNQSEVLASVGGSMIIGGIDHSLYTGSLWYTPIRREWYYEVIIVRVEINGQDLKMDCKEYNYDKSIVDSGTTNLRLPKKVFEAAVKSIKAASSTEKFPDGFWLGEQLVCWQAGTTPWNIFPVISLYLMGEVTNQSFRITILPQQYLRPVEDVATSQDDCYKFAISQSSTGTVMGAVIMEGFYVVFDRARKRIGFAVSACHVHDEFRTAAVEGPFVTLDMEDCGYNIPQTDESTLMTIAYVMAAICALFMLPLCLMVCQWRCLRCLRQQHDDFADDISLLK

Molecule	inhibitor potency relative to the valine substitution alone (fold more potent than P1' valine substituted peptide)	IC50 (MBP C125 assay, heptamer peptides, read-out: IC50 Group)
NH2-KTEEISEVNVAEF-COOH (H-KTEEISEVN[Sta]VAEF-OH) [P10-P4′sta D→V]	about 100 times	–
CSCC[C@H](NC(=O)[C@@H](NC(C)=O)C(C)C)C(=O)NC(CC(C)C)C(O)C(=O)N[C@H](C(=O)N[C@@H](C)C(=O)N[C@@H](CCC(=O)O)C(=O)N[C@@H](Cc1ccccc1)C(=O)O)C(C)C (some centres unmarked) [Example 7P] (Ac-VM[X1]VAEF-OH)	–	1 to 10 µM
